The values below come from patent US20090023658A1 (TOSHIKAZU NAKAMURA, published 2009).

The target in test [1] is c-Met/HGF receptor of rat liver plasma membrane (rat) (UniProt P97523). The test is described as follows: displacement of 60 pM 125I-HGF from rat liver plasma membrane.
Test [2] addresses c-Met/HGF receptor expressed on the lung tumor cell line A549 (UniProt P08581). The test is described as follows: cell-based or functional assay.
Test [3] addresses c-Met/HGF receptor of rat liver plasma membrane (rat) (UniProt P97523). The test is described as follows: Scatchard analysis, 125I-HGF on rat liver plasma membrane.
Test [4] addresses T1, c-Met/HGF receptor of rat liver plasma membrane (rat, UniProt P97523 25-1382).
T1 construct: whole, on cells; The assay used a plasma membrane preparation, not a purified receptor; also called cell surface receptor; HGF receptors
In words: displacement of 60 pM 125I-HGF from rat liver plasma membrane. The text has this:
(§1) Using the HGF/NK4 prepared in Example 1, its binding affinity for the cell surface receptor was investigated. As a control experiment, the binding affinity of HGF for the cell surface receptor was also investigated. In this connection, the HGF/NK4 and HGF were radio-labeled (¹²⁵I-HGF/NK4 and ¹²⁵I-HGF) by the chloramine-T method, and as the cell surface receptor sample, the plasma membrane prepared from the rat liver was used.
Then, to investigate whether HGF/NK4 is a competitive antagonist of HGF, the liver plasma membrane (50 μg) was incubated in the presence of ¹²⁵I-HGF alone (60 pM) or a mixture of ¹²⁵I-HGF and a varying amount of unlabeled HGF or unlabeled HGF/NK4.

The target of test [5] is T1, c-Met/HGF receptor of rat liver plasma …. In words: Scatchard analysis, 125I-HGF/NK4 on rat liver plasma membrane.
Source text: as §1

Chain of c-Met/HGF receptor expressed on the lung tumor cell line A549 (P08581 25-1390 limits assumed): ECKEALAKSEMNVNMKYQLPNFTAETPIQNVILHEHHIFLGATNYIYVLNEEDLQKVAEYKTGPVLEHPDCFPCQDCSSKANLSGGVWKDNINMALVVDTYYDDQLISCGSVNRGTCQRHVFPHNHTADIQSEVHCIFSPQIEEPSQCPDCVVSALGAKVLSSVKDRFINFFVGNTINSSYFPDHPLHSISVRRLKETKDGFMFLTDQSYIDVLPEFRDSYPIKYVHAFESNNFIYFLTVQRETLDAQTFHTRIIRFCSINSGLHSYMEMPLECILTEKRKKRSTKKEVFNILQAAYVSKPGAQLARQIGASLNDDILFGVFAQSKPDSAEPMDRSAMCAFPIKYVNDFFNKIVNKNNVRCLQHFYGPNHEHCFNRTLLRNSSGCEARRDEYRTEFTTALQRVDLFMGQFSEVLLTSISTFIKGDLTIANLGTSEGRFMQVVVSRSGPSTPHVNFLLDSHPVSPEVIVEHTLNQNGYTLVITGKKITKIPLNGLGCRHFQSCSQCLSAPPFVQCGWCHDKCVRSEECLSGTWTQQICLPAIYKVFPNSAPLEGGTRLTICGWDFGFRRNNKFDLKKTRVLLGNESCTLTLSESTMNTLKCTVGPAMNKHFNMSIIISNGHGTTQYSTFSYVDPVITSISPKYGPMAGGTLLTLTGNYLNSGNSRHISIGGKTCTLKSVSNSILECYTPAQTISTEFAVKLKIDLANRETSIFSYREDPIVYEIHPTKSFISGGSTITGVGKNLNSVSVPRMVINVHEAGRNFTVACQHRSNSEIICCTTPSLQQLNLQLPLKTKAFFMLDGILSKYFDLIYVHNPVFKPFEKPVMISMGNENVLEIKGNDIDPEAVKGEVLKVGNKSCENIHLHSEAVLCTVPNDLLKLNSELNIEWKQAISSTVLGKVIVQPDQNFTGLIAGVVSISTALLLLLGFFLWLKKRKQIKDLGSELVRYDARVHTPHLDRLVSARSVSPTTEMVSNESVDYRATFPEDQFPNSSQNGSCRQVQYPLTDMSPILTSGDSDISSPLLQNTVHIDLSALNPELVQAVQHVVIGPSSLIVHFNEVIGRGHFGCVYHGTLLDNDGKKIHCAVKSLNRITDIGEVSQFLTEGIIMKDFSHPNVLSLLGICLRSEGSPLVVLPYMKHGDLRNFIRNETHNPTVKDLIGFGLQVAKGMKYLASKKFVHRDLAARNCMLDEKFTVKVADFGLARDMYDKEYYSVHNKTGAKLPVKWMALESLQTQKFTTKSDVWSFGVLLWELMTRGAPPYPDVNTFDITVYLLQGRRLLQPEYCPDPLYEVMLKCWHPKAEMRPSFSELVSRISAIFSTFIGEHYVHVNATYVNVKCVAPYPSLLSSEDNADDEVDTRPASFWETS

The molecule “recombinant human hepatocyte growth factor (HGF), heterodimer of alpha-chain and beta-chain (from UniProt P14210 32-494; P14210 495-728) (ligand)” returned a 50% inhibitory concentration (IC50) in test [1] of 60 pM. This molecule also displayed a tyrosine phosphorylation of c-Met in A549 cells (immunoprecipitation with anti-c-Met antibody, Western blot with anti-phosphotyrosine antibody) in test [2] of 110 pM. Besides, the Kd in test [3] was 64.5 pM.

B1: HGF/NK4 (PyrGlu32-Val478 region of human HGF, obtained by elastase digestion of recombinant HGF) (ligand)
chain: ERKRRNTIHEFKKSAKTTLIKIDPALKIKTKKVNTADQCANRCTRNKGLPFTCKAFVFDKARKQCLWFPFNSMSSGVKKEFGHEFDLYENKDYIRNCIIGKGRSYKGTVSITKSGIKCQPWSSMIPHEHSFLPSSYRGKDLQENYCRNPRGEEGGPWCFTSNPEVRYEVCDIPQCSEVECMTCNGESYRGLMDHTESGKICQRWDHQTPHRHKFLPERYPDKGFDDNYCRNPDGQPRPWCYTLDPHTRWEYCAIKTCADNTMNDTDVPLETTECIQGQGEGYRGTVNTIWNGIPCQRWDSQYPHEHDMTPENFKCKDLRENYCRNPDGSESPWCFTTDPNIRVGYCSQIPNCDMSHGQDCYRGNGKNYMGNLSQTRSGLTCSMWDKNMEDLHRHIFWEPDASKLNENYCRNPDDDAHGPWCYTGNPLIPWDYCPISRCEGDTTPTIV
modifications: N-terminal residue is pyroglutamate (PyrGlu32 by prepro-HGF numbering; Xaa at position 1 of SEQ ID NO:1)
notes: also called unlabeled HGF/NK4
As for B1, the concentration for half-maximal inhibition (IC50) in test [4] is 600 pM. In addition, in test [5], the Kd is 486 pM.
